We go through five molecules from PMC9842639, “Insights into pyrrolysine function from structures of a trimethylamine methyltransferase and its corrinoid protein complex” (Communications Biology, 2023).

The chains are these.
B1: Methanosarcina barkeri trimethylamine corrinoid protein MttC (natural protein, UniProt O93659 1-217, looked up)
chain: MANKEEIIAKAKEAITDFDDELAEEVANEALAAGIDPVELIEKGFTAGMEEVGEKFGQGELFLPHVLAAAEAMNSGIKVITPEMEKRKSQTKSLGTVAIGTIEGDIHSIGKDIVASMLNIAGFKVVDLGRDVPINTFVEKVKELKPQVVASSALMTTTMVNQIQIEEQLKEAGVRDQVKTMVGGAPVTQDWADKIGADIYGESANDAVAKVKAALNV
notes: Trimethylamine corrinoid protein MttC of M. barkeri; mttC gene cloned by a strategy similar to that for mttB1; helical cap domain residues 2-84, connecting loop 85-95, core domain 96-216; No step that removes the tag is described; also called MttC-His6; cognate corrinoid protein; source: Methanosarcina acetivorans C2A transformed with plasmid pTC311, purified (HiTrap HP column, Mono-Q HR 10/10)
B2: MttB (Methanosarcina barkeri; C-TERMINAL/CHANGE/GGHHHHHH/IS/NO/TAG) (protein)
chain: MAKNNAVAGFNALNGVELNLFTTDELKAIHYATMEVLMDPGIQVSDPEARQIFKENGCEVNEKTNVVKIPEYLVRKALQLAPSRFVLWGRDKKFNTVQECGGKVHWTCFGTGVKVCKYQDGKYVTVDSVEKDIADIAKLCDWAENIDYFSLPVSARDIAGQGAQDVHETLTPLANTAKHFHHIDPVGENVEYYRDIVKAYYGGDEEEARKKPIFSMLLCPTSPLELSVNACQVIIKGARFGIPVNVLSMAMSGGSSPVYLAGTLVTHNAEVLSGIVLAQLTVPGAKVWYGSSTTTFDLKKGTAPVGSPELGLISAAVAKLAQFYGLPSYVAGSOSDAKVPDDQAGHEKTMTTLLPALAGANTIYGAGMLELGMTFSMEQLVIDNDIFSMVKKAMQGIPVSEETLAVESIQKVGIGNNFLALKQTRQLVDYPSNPMLLDRHMFGDWAAAGSKDLATVAHEKVEDVLKNHQVTPIDADIFKDMQAIVDKADKAFRGM
notes: full length with C-terminal GGHHHHHH tag, contains pyrrolysine at 334 (amber codon); expressed in Methanosarcina acetivorans C2A; D3 homohexamer (trimer of dimers)
B3: Methanosarcina barkeri trimethylamine methyltransferase MttB (enzyme, Methanosarcina barkeri MS, UniProt O93658 1-495, looked up)
chain: B2 chain
modifications: pyrrolysine at 334 (Pyl334)
notes: Trimethylamine methyltransferase MttB, product of the mttB1 gene amplified from M. barkeri MS genomic DNA; the in-frame amber codon is read as pyrrolysine (Pyl334); residues 2-495 are described in the structure; D3-symmetric homo-hexamer (trimer of dimers) in the crystals; No step that removes the tag is described; The PDB ids are printed in two ways (7XCL/7XCM in the methods, 7LCL/7LCM in the …)
B4: MttB (Methanosarcina barkeri; Y364F) (protein)
chain: B2 chain with Y364F
notes: as for B2

One data set deals with T1, MttB (Methanosarcina barkeri, UniProt O93658).
T1 construct: full length with C-terminal GGHHHHHH tag, contains pyrrolysine at 334 (amber codon); expressed in Methanosarcina acetivorans C2A; D3 homohexamer (trimer of dimers)
The data set can be described thus: X-ray crystal structure, […] Å. The data set is classed as binding. The conditions noted are these: covalent; adduct on imine carbon of Pyl334; crystal soaked with saturated sodium dithionite, pH 4.5.

Data set [1] concerns the target B3. The data set can be described thus: crystal structure; MttB-MttC complex; hanging drops at 10 °C of MttB (3 mg/mL) and MttC (10 mg/mL) mixed with 18% PEG8000, 0.1 M citric acid pH 5, 1 M LiCl; crystals soaked with 12.5 mM N,N-dimethyl-hydroxylamine; 2.7 Å, space group P21. The conditions noted are these: both partners purified.
Substrate in the data set “purified protein”: CN(C)C
Nature of the data set: purified protein. The data set is classed as biochemical, Methanosarcina barkeri. The conditions noted are these: 30 µM Co(I)-MttC as methyl acceptor, RamA, 2 mM Ti(III)-citrate, 2.5 mM ATP, 2.5 mM MgCl2, phosphate pH 7.2, 37 °C, anaerobic.

Data set [2] concerns the molecule itself. The data set can be described thus: crystal structure; MttB alone; vapor diffusion at 10 °C; 8 mg/mL MttB in 20 mM potassium phosphate pH 7.4, 500 mM NaCl, 240 mM imidazole, 20% glycerol; reservoir 4% MPD, 0.1 M citric acid pH 4.5; 2.5 Å.

Substitutions are numbered along the chain they refer to. Numbers in names are those of the source.

Take `O=S(O)O` [sulfite]: on MttB, the “X-ray crystal structure, 3.2 Å” value is given as “addition of sulfite to the pyrrolysine imine carbon of MttB was observed”.
Turning to B1, the binding result in data set [1] is “binds”.
As to B2, in “purified protein”, the Km is listed as 49 ± 6 µM and the kcat came out at 48 ± 2 turnovers per min.
Regarding B3, in data set [2], the “stoichiometry N” value is 6.
For B4, in the data set “purified protein”, the Km amounted to 75 ± 11 µM and the kcat turned out to be 1.7 ± 0.1 turnovers per min.

As a reminder, the Km is the substrate concentration at which the rate is half of its maximum. Usually stoichiometry N stands for a count of units in the complex or per binding partner.
